The text below walks through data of PMC9861716.

In this test the target is His-Fc-G67 polypeptide. In words: co-sedimentation; Herceptin on Herceptin-modified liposomes (Her-Lipo), evaluated semi-quantitatively by SDS-PAGE and silver staining; no data shown.

Turning to Herceptin (trastuzumab) (antibody), the amount of Herceptin on Her-Lipo per 100 µg lipid (µg of Herceptin per 100 µg lipid) was 0.4.
